Laboratory results reported in the RNAGym collection of RNA variant scans (doi:10.1093/molbev/msab373).

B1: Azoarcus group I ribozyme (parent)
chain: GUGCCUUGCGCCGGGAAACCACGCAAGGGAUGGUGUCAAAUUCGGCGAAACCUAAGCGCCCGCCCGGGCGUAUGGCAACGCCGAGCCAAGCUUCGGCGCCUGCGCCGAUGAAGGUGUAGAGACUAGACGGCACCCACCUAAGGCAAACGCUAUGGUGAAGGCAUAGUCCAGGGAGUGGCGAAAGUCACACAAACCGG

Variants of: B1
Assay: reverse-splicing fitness (ratio to wild type); higher = more active; in vitro selection; Mg2+ level not given
Outline: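 An in vitro group I ribozyme library with randomized positions was T7-transcribed and gel-purified. In triplicate, 10 pmol RNA in EPPS pH 7.5 was reacted with 50 pmoles of a 30-nt RNA substrate for 1 h at 37 °C across several added MgCl2 levels (1–48 mM), then stopped with EDTA. Products were reverse transcribed from a substrate-complementary primer, PCR-amplified and sequenced (HiSeq 4000). Fitness is a variant's read proportion after selection over that before, normalised to wild type.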

Variant | reverse-splicing fitness
C82U A111U C150U U176G | 0.0154
C82U A111U C150U U176C | 0.0816
C82U A120C C150G | 0.0174
C82U A120C C150A | 0.0251
C82U A120C C150U | 0.0835
C82U A120C A145U C169A U176A | 0.00753
C82U A120C A145U C169A U176G | 0.00364
C82U A120C A145U C169A U176C | 0.00593
C82U A111U C169G | 0.00886
C82U A111U C169U | 0.0122
C82U A111U C169A | 0.00848
C82U A111U C150G C169A U176C | 0.00895
C82U A111U C150G C169A U176A | 0.00971
C82U A111U C150G C169A U176G | 0.00774
C82U A120C A145G C169A U176A | 0.0158
C82U A120C A145G C169A U176G | 0.00317
C82U A120C A145G C169A U176C | 0.0219
C82U A111U C150A U176A | 0.0157
C82U A111U C150A U176G | 0.00896
C82U A111U C150A U176C | 0.0289
C82U A120C A145U C150G C169U U176A | 0.00974

Variant | reverse-splicing fitness
C82U A120C A145U C150G C169U U176C | 0.0116
C82U A120C A145U C150G C169U U176G | 0.00467
C82U A111U C150A | 0.031
C82U A111U C150G | 0.0213
C82U A111U C150U | 0.157
C82U A120C A145G C169G U176A | 0.0152
C82U A120C A145G C169G U176C | 0.0181
C82U A120C A145G C169G U176G | 0.00346
C82U A120C A145G C150U C169A U176A | 0.0152
C82U A120C A145G C150U C169A U176C | 0.0131
C82U A120C A145G C150U C169A U176G | 0.00464
C82U A120C A145U C150U C169U | 0.0166
C82U A120C A145U C150U C169A | 0.0082
C82U A120C A145U C150U C169G | 0.00708
C82U A120C | 0.167
C82U A120C A145U C150U C169G U176A | 0.00914
C82U A120C A145U C150U C169G U176C | 0.00724
C82U A120C A145U C150U C169G U176G | 0.00405
C82U A111U A145U C150U C169A U176G | 0.00627
C82U A111U A145U C150U C169A U176C | 0.00869
C82U A111U A145U C150U C169A U176A | 0.0113

Variant | reverse-splicing fitness
C82U A120C A145C C150A C169U | 0.00777
C82U A120C A145C C150A C169G | 0.00551
C82U A120C A145C C150A C169A | 0.00632
C82U A120C A145C C169U U176C | 0.0127
C82U A120C A145C C169U U176G | 0.00368
C82U A120C A145C C169U U176A | 0.0191
C82U A120C A145G C150U C169U | 0.0209
C82U A120C A145G C150U C169A | 0.0101
C82U A120C A145G C150U C169G | 0.00809
C82U A120C C150U C169G U176C | 0.0117
C82U A120C C150U C169G U176A | 0.0126
C82U A120C A145G C150G C169U U176G | 0.00619
C82U A120C A145G C150G C169U U176A | 0.0113
C82U A120C A145G C150G C169U U176C | 0.0111
C82U A120C A145C C150U C169A | 0.00607
C82U A120C A145C C150U C169G | 0.00596
C82U A120C A145C C150U C169U | 0.0104
C82U A120C C150G C169G U176A | 0.00705
C82U A120C C150G C169G U176C | 0.00447
C82U A120C C150G C169G U176G | 0.00432
C82U A120C A145U C150G C169G | 0.0059

Variant | reverse-splicing fitness
C82U A120C A145U C150G C169A | 0.00827
C82U A120C A145U C150G C169U | 0.00863
C82U A120C A145G C150A C169G | 0.00829
C82U A120C A145G C150A C169A | 0.00919
C82U A120C A145G C150A C169U | 0.0116
C82U A111U C169G U176C | 0.0183
C82U A111U C169G U176A | 0.0162
C82U A111U C169G U176G | 0.0052
C82U A111U A145U C169U | 0.0106
C82U A111U A145U C169A | 0.00706
C82U A111U A145U C169G | 0.00791
C82U A120C C150A C169U | 0.0109
C82U A120C C150A C169G | 0.00799
C82U A120C C150A C169A | 0.00872
C82U A111U C150G C169A | 0.00799
C82U A111U C150G C169G | 0.00698
C82U A111U C150G C169U | 0.0095
C82U A111U A145U C150U C169U U176G | 0.00582
C82U A111U A145U C150U C169U U176C | 0.0115
C82U A111U A145U C150U C169U U176A | 0.0148
